This is an account of results in publication PMC3484714 (Journal of the American Chemical Society, 2012).

B1: methyltransferase (MeTr) from Moorella thermoacetica, homodimer (enzyme, UniProt Q46389 1-262, looked up)
chain: MLIIGERINGMFGDIKRAIQERDPAPVQEWARRQEEGGARALDLNVGPAVQDKVSAMEWLVEVTQEVSNLTLCLDSTNIKAIEAGLKKCKNRAMINSTNAEREKVEKLFPLAVEHGAALIGLTMNKTGIPKDSDTRLAFAMELVAAADEFGLPMEDLYIDPLILPANVAQDHAPEVLKTLQQIKMLADPAPKTVLGLSNVSQNCQNRPLINRTFLAMAMACGLDAAIADACDEALIETAATAEILLNQTVYCDSFVKMFKTR
B2: corrinoid iron-sulfur protein (CFeSP) from Moorella thermoacetica, heterodimer of large and small subunit (complex)
chain 1: MPLTGLEIYKQLPKKNCGECGTPTCLAFAMNLASGKASLDSCPYVSDAAREALDAAAAPPIAKVVLGAGPTAVEMGDETELFRHDKRFYHETAIAIQVSDNLSSEELKAKVEAINGLNFDRVGQHYTIQAIAIRHDADDPAAFKAAVASVAAATQLNLVLMADDPDVLKEALAGVADRKPLLYAATGANYEAMTALAKENNCPLAVYGNGLEELAELVDKIVALGHKQLVLDPGARETSRAIADFTQIRRLAIKKRFRSFGYPIIALTTAANPLDEVLQAVNYVTKYASLVVLRTDAKEHLLPLLSWRQNLYTDPQVPIRVEEKLNEIGAVNENSPVYVTTNFSLTYYSVEGEIESTKIPSYLLSVDTDGLSVLTAYADGKFEAEKIAAVMKKVDLDNKVKRHRIIIPGAVAVLKGKLEDLTGWEVIVGPREASGIVAFARANLAS
chain 2: MAVQILRDRSRAAVQKVVLGATKDQGGTRSHTIVVGGDAALPFHHFEGEIVNRPVIGMEVQDIVPDWPDVLKDPFTDVINEPGRWAQKCVAEYGADLIYLKLDGADPEGANHSVDQCVATVKEVLQAVGVPLVVVGCGDVEKDHEVLEAVAEAAAGENLLLGNAEQENYKSLTAACMVHKHNIIARSPLDINICKQLNILINEMNLPLDHIVIDPSIGGLGYGIEYSFSIMERIRLGALQGDKMLSMPVICTVGYEAWRAKEASAPVSEYPGWGKETERGILWEAVTATALLQAGAHILLMRHPEAVARVKENIDQLMVSNAY

The series “SAXS” concerns the molecule itself. The series is described as follows: SAXS.
In series [1] the target is B1. The series is described as follows: ITC. A general note: In ITC the heat of successive injections is recorded.
Series [2] concerns the target B1. The series is described as follows: SAXS.
For series [3], the target named is B1. Description: SAXS. This is another data set of the same source.

Where two headings read alike, the source gives them in different places.

The term stoichiometry N denotes a count of units in the complex or per binding partner. With B1, in “SAXS”, the “stoichiometry N” value was found to be 2.

As to B2, in series [1], the “KD of the first binding event” value was determined as 7.7 µM, the “KD of the second binding event” value is 111 µM and the “dH (1:1 complex)” value is 4.9 kcal/mol. The “stoichiometry N” value in series [2] is 2 CFeSP heterodimer per MeTr homodimer. For the same molecule, the “stoichiometry N” value in series [3] is 1 CFeSP heterodimer per MeTr homodimer.
